Measured values as given in patent US20210371823A1.

Molecular target: human MICA protein (hMICA) (human) (UniProt Q29983)
Assay: cell-based or functional assay

Sequence of UniProt Q29983 (Q29983 24-383): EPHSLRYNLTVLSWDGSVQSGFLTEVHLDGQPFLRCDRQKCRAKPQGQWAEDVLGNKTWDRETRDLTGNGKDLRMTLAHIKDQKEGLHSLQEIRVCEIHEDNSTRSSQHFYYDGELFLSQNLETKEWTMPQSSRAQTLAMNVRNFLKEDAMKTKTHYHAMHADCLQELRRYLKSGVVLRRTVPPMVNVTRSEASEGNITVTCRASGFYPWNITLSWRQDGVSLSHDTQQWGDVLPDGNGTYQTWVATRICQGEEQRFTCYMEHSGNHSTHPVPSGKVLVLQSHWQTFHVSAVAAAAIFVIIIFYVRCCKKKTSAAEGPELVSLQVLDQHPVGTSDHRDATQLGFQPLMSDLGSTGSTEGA

activation receptor NKG2D on NK cells (from UniProt P26718 1-216)
killing effect of NK cells on 3T3-Luc/hMICA cells at effector-target ratio 1:1 (luciferase-based killing assay): 60%
